In this assay the target is SteD (untagged, HIS tag cleaved) (Salmonella enterica serovar Typhimurium (14028s)). Nature of the assay: SEC-MALS; co-purified untagged SteD-SrcA complex at 8 mg/ml on analytical Superdex200 in the dialysis buffer (20 mM phosphate pH 6.8, 150 mM NaCl, 5 % glycerol, 1 mM DTT), 0.4 ml/min.

In turn, “SrcA (untagged, recombinant) (natural protein)” yielded a stoichiometry N (SrcA molecules per SteD molecule) of 2.
